Results: patent US20150133367

Molecular target: T1, SCEEVCKPGGP (SEQ ID NO:47)
T1 chain: SCEEVCKPGGP

B1: Cathepsin K (protein)
chain: APDSVDYRKKGYVTPVKNQGQCGSCWAFSSVGALEGQLKKKTGKLLNLSPQNLVDCVSENDGCGGGYMTNAFQYVQKNRGIDSEDAYPYVGQEESCMYNPTGKAAKCRGYREIPEGNEKALKRAVARVGPVSVAIDASLTSFQFYSKGVYYDESCNSDNLNHAVLAVGYGIQKGNKHWIIKNSWGENWGNKGYILMARNKNNACGIANLASFPKM
With B1 the “cleavage of the peptide by the enzyme” value was “This peptide did not inhibit cathepsin K but rather was cleaved by the enzyme”.
